# Data: patent US12233115B2, “Long-acting parathyroid hormone” (Extend Biosciences, Inc., priority 2022, dated 2025)
# Marks after values point to notes of the source that are not given here.
# How the values were obtained:
# Assay type in all cases: in vivo
# [1] = Single dose pharmacokinetics of EXT607 in male cynomolgus monkeys; conditions: cynomolgus monkey, in vivo, sc; NHP, after subcutaneous dosing; read-out: terminal half-life
# Method: In a single dose pharmacokinetic study, EXT607 was formulated in PBS and groups of male cynomolgus monkeys (n=3), weighing approximately 4 kg each, were dosed at a volume of 1 ml/kg as follows: Group 1, 20 μg/kg intravenous; Group 2, 7 μg/kg subcutaneous; Group 3, 20 μg/kg subcutaneous; Group 4, 70 μg/kg subcutaneous. Blood (1.0 mL) was collected via the jugular vein cannula, transferred into tubes containing K2EDTA, and kept on wet ice until processed for plasma. Blood samples were collected at 0 (pre-dose), 0.083 (IV only), 0.25, 0.5, 1, 2, 4, 6, 8, 12, 24, 36, 48, 60 and 72 h post-dose.
# Pharmacokinetic parameters were determined from the plasma concentration versus time data (Table 5) by a non-compartmental analysis with uniform weighting using Phoenix® WinNonlin® Version 6.3 (Certara L.P. (Pharsight), St. Louis, MO). The concentration versus time data were analyzed using the IV bolus or extravascular administration models. Best fit Lambda z ranges were used.
# At low doses, the rate of subcutaneous absorption is slower than at high doses, leading to a lower Cmax and an overall flatter PK profile.
# [2] = Repeat dose pharmacokinetics of EXT608 in male and female rats; conditions: rat; for Cmin: 0-24 h; for AUC(0-t): sc, read-out: AUC0-24 h
# Method: 21-Day Experiment: EXT608 was formulated in 20 mM sodium acetate pH=5.5 buffer with 0.8% sodium chloride. In a repeat dose toxicokinetic study, groups of 18 rats (9 males+9 females) were subcutaneously dosed daily at a volume of 0.5 ml/kg with either 14.2 μg/kg or 70 μg/kg of EXT608. On Day 21, blood samples (˜0.5 ml) were collected at t=0 (pre-dose), 0.5, 1, 3, 8, 24, 32, 48, and 72 h with each timepoint being collected from one of three cohorts of 3 male and 3 female animals. Each blood sample was collected from the jugular vein into tubes containing K2EDTA and manually inverted several times. Blood samples were kept on wet ice pending centrifugation. Samples were centrifuged (˜2700 g, ˜10 min, ˜5° C.) within 1 hour of collection. Plasma was recovered and divided evenly into duplicate aliquots and frozen. 90-Day Experiment: EXT608 was formulated in 20 mM sodium acetate pH=5.5 buffer with 0.8% sodium chloride and 0.1% Polysorbate 80. In a repeat dose toxicokinetic study, groups of 18 rats (9 males+9 females) were subcutaneously dosed daily at a volume of 0.5 ml/kg with either 1, 3, or 10 μg/kg of EXT608. On Day 90, blood samples (˜0.5 ml) were collected at t=0 (pre-dose), 0.5, 1, 3, 8, 24, 32, 48, and 72 h with each timepoint being collected from one of three cohorts of 3 male and 3 female animals. Plasma was prepared as described above for the 21-Day experiment. […] Group-averaged EXT608 levels as a function of time are shown in FIG. 13 for the last dose administration after either 21 days of daily dosing (14.2 and 70 μg/kg) or 90 days of daily dosing (1, 3, and 10 μg/kg). Surprising, the PK profiles changed as a function of dose level. […] Pharmacokinetic parameters were determined from the plasma concentration versus time data (Table 6) by a non-compartmental extravascular administration model with uniform weighting using Phoenix® WinNonlin® Version 6.4 (Certara L.P. (Pharsight), Princeton, NJ). Pharmacokinetic analysis was performed on data collected from t=0 to 72 h following the last administered dose. […] The Cmax/Cmin ratio represents the peak-to-trough ratio of EXT608 concentration that was observed during the dosing period. […] Without being bound by theory, the low peak-to-trough ratios observed at low doses could be the result of a slower rate of absorption of EXT608 from the subcutaneous space into circulation. A low peak-to-trough ratio is desirable in many therapeutic applications, including parathyroid hormone replacement therapy. It allows dosing at levels close to the ideal efficacious dose without going too high where toxicity might be observed or too low where the efficacy is reduced.
# [3] = Single dose pharmacokinetics of EXT608 in healthy humans; conditions: human
# Method: EXT608 vastly improves the serum half-life in humans in a dose-dependent manner. Sterile EXT608 formulations were prepared at a concentration of 0.4 mg/ml in 10 mM sodium acetate buffer pH=5.5, 4.5% mannitol, and 0.25% Polysorbate 80 and filled into sterile vials. Healthy human participants were administered EXT608 by subcutaneous injection in the abdomen at doses of 0, 36, 108, 216, or 324 micrograms (n=3).
# Pharmacokinetics: 4 ml Blood samples were collected at −24, −1, 0.5, 1, 2, 4, 8, 12, 18, 24, 36, 48, and 72 hours relative to dosing as well as on Days 5, 7, 14, 21, and 28 after dosing. They were processed to K2EDTA plasma. […] Pharmacokinetic parameters were calculated for each individual using Kinetica software (ThermoFisher Scientific, Waltham, MA), and the parameter means and standard deviations are given in Table 12. For the lower doses (36, 108, and 216 μg), an accurate elimination half-life (t1/2) could not be determined because of limited timepoints with EXT608 concentrations above the lower limit of quantitation.
# [4] = in vivo, 1 ug/kg, daily SC 1 μg/kg, 90 days
# [5] = in vivo, 36 ug, single 36 μg SC
# [6] = in vivo, 108 ug, single 108 μg SC
# [7] = in vivo, 216 ug, single 216 μg SC
# [8] = in vivo, 324 ug, single 324 μg SC
compound,measurement,setting,value
C=C1CC[C@H](OCCCNC(=O)CCOCCOCCOCCOCCOCCOCCOCCOCCOCCOCCOCCOCCOCCOCCOCCOCCOCCOCCOCCOCCOCCOCCOCCOCCOCCOCCOCCOCCOCCOCCOCCOCCOCCOCCOCCOCCNC(=O)CCN2C(=O)CC(SC[C@H](NC(=O)[C@H](Cc3ccccc3)NC(=O)[C@H](CC(N)=O)NC(=O)[C@H](Cc3c[nH]cn3)NC(=O)[C@@H](NC(=O)[C@H](CC(=O)O)NC(=O)[C@H](CCC(N)=O)NC(=O)[C@H](CC(C)C)NC(=O)[C@H](CCCCN)NC(=O)[C@H](CCCCN)NC(=O)[C@H](CCCNC(=N)N)NC(=O)[C@H](CC(C)C)NC(=O)[C@H](Cc3c[nH]c4ccccc34)NC(=O)[C@H](CCC(=O)O)NC(=O)[C@@H](NC(=O)[C@H](CCCNC(=N)N)NC(=O)[C@H](CCC(=O)O)NC(=O)[C@H](CCSC)NC(=O)[C@H](CO)NC(=O)[C@H](CC(N)=O)NC(=O)[C@H](CC(C)C)NC(=O)[C@H](Cc3c[nH]cn3)NC(=O)[C@H](CCCCN)NC(=O)CNC(=O)[C@H](CC(C)C)NC(=O)[C@H](CC(N)=O)NC(=O)[C@H](Cc3c[nH]cn3)NC(=O)[C@H](CCSC)NC(=O)[C@H](CC(C)C)NC(=O)[C@H](CCC(N)=O)NC(=O)[C@@H](NC(=O)[C@H](CCC(=O)O)NC(=O)[C@H](CO)NC(=O)[C@@H](NC(=O)[C@@H](N)CO)C(C)C)[C@@H](C)CC)C(C)C)C(C)C)C(N)=O)C2=O)C/C1=C/C=C1\CCC[C@]2(C)[C@@H]([C@H](C)CCCC(C)(C)O)CC[C@@H]12 (stereo partly shown) [EXT608],half-life,[1],24 to 32 h
same,Tmax,[2]; [4],1 h
same,half-life,"[2]; in vivo, repeated daily SC dosing, across doses 1-70 μg/kg, read-out: t1/2 of elimination",10.4 to 13.8 h
same,Cmin,"[2]; daily SC 1 μg/kg, 90 days",0.299 ng/mL
same,Cmin,"[2]; daily SC 3 μg/kg, 90 days",0.875 ng/mL
same,Cmin,"[2]; daily SC 10 μg/kg, 90 days",1.56 ng/mL
same,Cmin,"[2]; daily SC 14.2 μg/kg, 21 days",2.35 ng/mL
same,Cmin,"[2]; daily SC 70 μg/kg, 21 days",5.92 ng/mL
same,AUC(0-t),[2]; [4],11.2 ng·h/mL
same,AUC(0-t),"[2]; in vivo, 3 ug/kg, daily SC 3 μg/kg, 90 days",29.9 ng·h/mL
same,AUC(0-t),"[2]; in vivo, 10 ug/kg, daily SC 10 μg/kg, 90 days",93.2 ng·h/mL
same,AUC(0-t),"[2]; in vivo, 14.2 ug/kg, daily SC 14.2 μg/kg, 21 days",149 ng·h/mL
same,AUC(0-t),"[2]; in vivo, 70 ug/kg, daily SC 70 μg/kg, 21 days",875 ng·h/mL
same,tlast,[3]; single 36 μg SC,24 h
same,tlast,"[3]; single 108 μg SC, 48 h (n = 1) or 72 h (n = 2)",48/72^a
same,tlast,[3]; single 216 μg SC,48/72/120
same,tlast,[3]; single 324 μg SC,168 h
same,AUC(0-t),[3]; [5],5.9 ± 2.7 ng·h/mL
same,Cmax,[3]; [5],0.49 ± 0.27 ng/mL
same,Tmax,[3]; [5],3.3 ± 1.2 h
same,AUC(0-t),[3]; [6],29.2 ± 8.4 ng·h/mL
same,Cmax,[3]; [6],1.2 ± 0.3 ng/mL
same,Tmax,[3]; [6],5.3 ± 2.3 h
same,AUC(0-t),[3]; [7],41.7 ± 17.4 ng·h/mL
same,Cmax,[3]; [7],1.3 ± 0.5 ng/mL
same,Tmax,[3]; [7],4 h
same,AUC(0-inf),[3]; [8],151 ± 16 ng·h/mL
same,AUC(0-t),[3]; [8],118 ± 11 ng·h/mL
same,Cmax,[3]; [8],5 ± 2 ng/mL
same,MRT,[3]; [8],105 ± 18 h
same,Tmax,[3]; [8],2.7 ± 1.2 h
same,half-life,[3]; [8],90 ± 13 h
same,Vd/F,"[3]; in vivo, 324 ug, single 324 μg SC, read-out: VZ/F",280 ± 42 L
same,CL/F,"[3]; plasma, 324 ug, single 324 μg SC",36.7 mL/min
